Assays:
[1] = system: alanine substituted 13mer tau peptides; assay: Alanine scanning mutagenesis (ASM) peptide ELISA; assay type: binding, human; settings: numbering according to SEQ ID NO: 1; description text 'may be'
Procedure: To further elucidate epitopes of the scAb panel, and identify the critical amino acids needed for binding, alanine scanning mutagenesis of the parent 13 aa peptides for scAbs CE2, S1D12, CA4 and S1G2 was performed. […] Briefly, 5 μg/ml streptavidin (Thermo Fisher) was adsorbed to Nunc 96-well MaxiSorp plates and following incubation at 37° C., for 1 h, the plates were washed as normal and blocked with 2% MPBS. N-terminally biotinylated peptides (Prolmmune Ltd) were added to the plates and incubated for 1 h at 37° C. Subsequently, test scAbs at starting concentrations of 100-500 nM was added and double diluted across the plate for each peptide and incubated for 1 h at 37° C. Rest of the ELISA was conducted as described above and the plates were read at absorbance 450 nm. Immunoreactivity of the scAb of interest was quantified as the % of scAb was bound for each peptide at a chosen concentration (FIG. 15-20).

dGAE aggregates = dGAE aggregates (Homo sapiens, UniProt P10636); assay: Sandwich ELISA on SDS/Triton X-100 treated dGAE aggregates; assay type: binding
Procedure: For aggregation, 1000 μL 100 μM dGAE+10 μL 10 mM DTT was added to a ‘LoBind’ microfuge tubes and agitated at 700 RPM/37° C., for 24 hours. Resulting sample centrifuged at 17,000×g/4° C., for 60 min and supernatant discarded to remove left over monomer. Pellet resuspended in half the original volume for future experiments and hereafter referred to as ‘aggregates’. 1 μl of aggregates was added to 1 ml of PBS and SDS was added to a final concentration of 1% (w/v). This was left to incubate on lab bench for 1 h with gentle agitation every 15 minutes. In order to neutralise the SDS effect on ELISA, Triton X-100 added to a final concentration of 3% (v/v) and mixed gently by pipetting to prevent any bubble formation. […] Similarly aggregates treated with only SDS or Triton X-100, untreated aggregates, dGAE monomers treated with only SDS or SDS+Titon X-100 were also added to designated wells as controls. All samples were then double diluted across the plate in final volumes of 100 μl. The final column was left with no protein to act as a blank. This was allowed to stand at room temperature for 1 hour followed by the addition of detection scAb-S1G2 at 10 μg/ml. Anti-HuCk HRP labelled secondary antibody was added as described previously and ELISA data generated was represented using the graph below. In addition, limits of detection (LoD) of various core binding antibody pairing for SDS Triton X-100 treated dGAE aggregates were calculated using the above describe ELISA method and substituting capture mAbs and detection scAbs as shown in Table 30.

[2] = S1D12 mAb capture, +SDS Triton dGAE agg.
[3] = direct immobilisation of dGAE aggregates, +SDS Triton

Sequence of dGAE aggregates (P10636 614-708): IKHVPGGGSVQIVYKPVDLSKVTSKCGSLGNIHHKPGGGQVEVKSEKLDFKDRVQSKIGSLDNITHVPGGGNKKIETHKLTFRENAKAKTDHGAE

B1: CA12: anti-tau clone, SEQ ID NO: 372 (protein)
scFv: QVQLQGSGPSLVKPSQTLSLTCTVSGFSFDSYYVGWVRQAPGKALEWLGNIYSTGRAFYNPALKSRLSITRDTSKSQVSLSVSSVTIEDTALYYCVRGSYYHGGGNGMVDFFDYWSPGLLVTVSSEGKSSGASGESKVDDQVVRTQPSSVSGSLGQRVSITCSGSSSNVGYGNYVGWFQQVPGSAPKLLIYAATSRASGVPDRFSGSRSGNTATLTIDSLQAEDEADYYCSSYQRGNTGVFGSGTRLTVLG
modifications: CA12 amino acid sequence
**Q.** How did the “Critical residues of the epitope” value [1] turn out when B1 was run?
**A.** 370 (K), and/or 374 (H)

B2: CA12 scAb (protein)
scFv: B1 scFv
modifications: left off: small tags and cut ends
**Q.** Which results are given for B2?
**A.** LoD (dGAE aggregates; [2]): 2 ng/mL; LoD (dGAE aggregates; [3]): 16 ng/mL

B3: CA9: anti-tau clone, SEQ ID NO: 371 (protein)
scFv: QVQLQESGPSLVKPSQTLSLTCTVSGFSLTSNSVGWVRQAPGKAPEWVAGIDTDGEEGYNPALNSRLSITRDTSKSQVSLSLSSVTSEDTAVYYCGRSYRSDGLAYGYVQAIDYWGPGLLVTVSSEGKSSGASGESKVDDQAVLTQPASVSGSLGQRVSITCSGSFIGISSVGWFQQLPGSGLRTIIVASDGRPSGVPDRFSMSKSGNTATLTISSLQAEDEADYFCGSSDRTQYTGVFGSGTRLTVLG
modifications: CA9 amino acid sequence
**Q.** With B3 as the molecule, how does the “Critical residues of the epitope” value [1] read?
**A.** 370 (K), and/or 374 (H)

B4: CA9 scAb (protein)
scFv: B3 scFv
modifications: left off: small tags and cut ends
**Q.** B4 was tested. Which LoD (dGAE aggregates; [2]) did it give?
**A.** 4 ng/mL

**Q.** What about the LoD (dGAE aggregates; [3]) of the same molecule?
**A.** 40 ng/mL

Source: patent US12624096B2, “Anti-tau antibodies and methods of use thereof” (GTInvent Limited, priority 2020, dated 2026)
